Source: patent US20260265360A1, “USE OF ANTI-FAM19A5 ANTAGONISTS FOR TREATING HEARING DISORDERS” (NEURACLE SCIENCE CO., LTD., priority 2023, published 2026)
Values belong to the molecule of their own block, whether it stands above or below them.

How the values were obtained:
[1] = tested on: human FAM19A5 protein epitope fragments F1-F6; test: Epitope mapping: binding to BSA-conjugated FAM19A5 epitope fragments F1-F6 (Western blot / ELISA); details: for binding to epitope fragment F5: Western blot and/or ELISA
Description: (§1) Overlapping peptide fragments (F1-F6 epitope fragments; SEQ ID NOs: 178-183) of the human FAM19A5 protein were synthesized and conjugated to BSA (SEQ ID NOs: 322-327). Binding of the different anti-FAM19A5 antibodies to the BSA-conjugated peptide fragments F1-F6 was determined by Western blot analysis or ELISA assay. For the Western blot analysis, BSA-conjugated FAM19A5 fragments F1-F6 were separated by SDS polyacrylamide gel electrophoresis and transferred to a nitrocellulose membrane by the standard procedure. The membrane was incubated with the anti-FAM19A5 antibody (e.g., 1-65, […], 1-65-scFv-rabbit Fc-SSS), and the antigen-antibody complexes were detected with the appropriate secondary antibody conjugated with horse-radish peroxidase (anti-rabbit IgG (Fc specific)-HRP, 1:4000 dilution). For the ELISA assay, the following protocol was used. FAM19A5 fragment F1-F6 (diluted to 1 μg/mL in 50 mM carbonate buffer (Biosesang) or to 20 μg/mL for high concentration analysis) were used to coat the wells of 96-well immuno plates (Thermo Scientific) (100 μL/well) overnight at 4° C. and then subsequently washed twice in 1×PBS. The plates were then blocked with the blocking buffer (100 μL/well) for 1 hour at room temperature. During the 1-hour incubation, the relavant anti-FAM19A5 antibodies were diluted to 1 μg/mL (or 20 μg/mL for high concentration analysis) in the diluent buffer. Once the plates were washed (2× using 1×PBS), the diluted anti-FAM19A5 antibodies were added to the appropriate wells, and the plates were incubated at room temperature for 1 hour. The plates were subsequently washed for a total of five times using the washing buffer. Next, the ODP substrate (prepared by dissolving one ODP tablet (O-phenylenediamine Dihydrochloride, Thermo) into 9 mL of sterilized deionized water and 1 mL of 10× stable Peroxide Stable buffer (Theromo)) was added to each of the wells, and the color change reaction was allowed to occur for 10 minutes. This reaction was stopped by adding 100 μL of 2N H2SO4 (Daejung) to the wells. The absorption value of each of the wells was detected at 492 nm using a 96-well microplate reader (Molecular Device).

FAM19A5 mutants M1 to M8 [2] = target: T1, FAM19A5 mutants M1 to M8 (Homo sapiens, UniProt Q7Z5A7, D98Q/K92L/K94R/L100E/P101L/Q95W/T93Q); test: Epitope mapping ELISA with FAM19A5 mutants M1-M8; type: binding
T1 construct: made in house; host or cells: phage display with helper phage
Description: (§2) To further characterize the binding epitopes of the anti-FAM19A5 antibodies disclosed in the present disclosure, the amino acid sequences for the different FAM19 family members (i.e., FAM19A1-5) were aligned. […] The amino acid sequences of these regions were replaced with the consensus sequence of the corresponding regions for the FAM19A1-4 proteins. See Table 13 (the mutated amino acid residues are bolded and underlined).
(§3) The mutant FAM19A5-expressing phages were prepared as follows. To prepare the media for phage culture, 55.6 ml of 2M Glucose (D-(+)-Glucose, Sigma), 5 mL of 1M MgCl2 (Magnesium chloride, Junsei) 1 mL of 34 mg/mL chloramphenicol (Sigma) were added to 2×YT media. Colonies obtained through mono-phage ELISA were selected and placed in 5 mL of prepared media (2×YT-GMC) to be cultured for 16 hours at 37° C. with shaking incubator (VS-8480, Vision). 100 μL of each culture was transferred to 10 mL 2×YT-GMC individually which were cultured at 37° C. in the incubator until detection value at O.D. 600 nm reached 0.5. Once detection value has reached 0.5 at O.D. 600 nm, 5 mL of each culture were obtained as samples to be infected. Following sample preparation, 50 μL of […] was added to individual samples then incubated at 37° C. without shaking for 30 minutes and with shaking for additional 30 minutes. Individual cultures were centrifuged for 15 minutes at 3,850 rpm using Micro centrifuge (Micro12, Hanil). The supernatants of centrifuged cultures were removed to be kept separate and replaced with 5 mL of 2×YT media containing 1 mL of IM IPTG (AG Scientific), 5 mL of 1M MgCl2.1 ml of 70 μg/μL kanamycin (Biopure) and 1 mL of Chloramphenicol. The resulting pellets were dispersed thoroughly in newly added media followed by incubation at 30° C. for 16 hours with stirring.

FAM19A5 mutants M1 to M8 [3] = target: T2, FAM19A5 mutants M1 to M8 (Homo sapiens, UniProt Q7Z5A7); test: Epitope mapping ELISA with FAM19A5 mutants M1-M8; type: binding
T2 construct: made in house; host or cells: phage display with helper phage
Description: as §2, §3

[4] = tested on: FAM19A5 epitope fragment F5 mutant peptides F5-1 to F5-8; test: ELISA binding to mutant F5 peptide fragments (alanine substitution); design: species or system human
Description: as §1
Next, to identify the specific amino acid residues within the eptitope fragment F5 that the 1-65 and P2-C12 antibodies bind to, different amino acid residues of the F5 fragment were replaced with alanine as shown in Table 11 (below). The mutated residues are bolded and underlined. The binding affinity of the indicated anti-FAM19A5 antibodies were measured using an ELISA assay as described above.

FAM19A5 mutants M1 to M8 [5] = target: T3, FAM19A5 mutants M1 to M8 (Homo sapiens, UniProt Q7Z5A7, D109K/G107E/I112P/L110T/N113D/R114N); test: Epitope mapping ELISA with FAM19A5 mutants M1-M8; type: binding
T3 construct: made in house; host or cells: phage display with helper phage
Description: as §2, §3

FAM19A5 antigen = FAM19A5 antigen (Homo sapiens, UniProt Q7Z5A7); test: Cross-competition two-site sandwich ELISA; type: binding; details: antibodies 1-65, P2-A03, P2-F11, 13B4, 2-13, 3-2; cross-competition = S/N ratio lower than 2
Description: The term “S/N” refers to the signal to noise ratio, which is measured as follows: [O.D. of 10 ng/ml antigen]/[O.D. of 0 ng/ml antigen].
Next, a two-site sandwich ELISA was used as described below to assess whether the different anti-FAM19A5 antibodies with similar binding epitopes cross-compete with each other.
First, the indicated anti-FAM19A5 antibodies were diluted in 1×PBS to a concentration of 10 μg/mL. The diluted anti-FAM19A5 antibodies (10 μg/mL in 1×PBS) (“capture antibody”) were used to coat the 96-well plates (100 μL/well) at 37° C. for approximately 1 hour. After the incubation, the plates were washed with the washing buffer (0.01% Tween-20/PBS; also called 0.01% PBST) for a total of five washes, blocked with the blocking solution (5% BSA/PBS; also called 5% PBSA) (250 μL/well) for one hour at 37° C., and then washed again. Next, 100 μg/mL of the FAM19A5 antigen (diluted in PBS containing 5% BSA, 0.01% Tween-20; also called 5% PBSAT; “diluent buffer) was added to each of the wells, and the 96-well plates were incubated for 2 hours at 37° C. After the incubations, the plates were washed using 0.01% PBST for a total of five washes. After the final wash, the indicated biotinylated anti-FAM19A5 antibodies (“detection antibody”) (diluted to lug/mL in 5% PBSAT) were added to the relevant wells (100 μL volume) and the plates were incubated for an additional 1 hour at 37° C. Afterwards, the plates were washed again with 0.01% PBST (five total washes). Next, 100 μL of the diluted (1/2000 in 5% PBSAT) Streptavidin-HRP (1 mg/mL, Sigma, USA) was added to the wells, and the plates were incubated for 30 minutes at room temperature. The plates were then washed and treated with 100 μL of the TMB substrate ([…], Thermo Fisher Scientific). After an additional 30-minute incubation at room temperature, the color change reaction was induced by the addition of the TMB substrate. This reaction was stopped using 50 μL of sulfuric acid (2N H2SO4), and the extent of color change was detected via absorption at 450 nm with reference wavelength at 620 nm using a 96 well microplate reader (Molecular Device).

FAM19A5 mutants M1 to M8 [6] = target: T4, FAM19A5 mutants M1 to M8 (Homo sapiens, UniProt Q7Z5A7, D53C/P57N/Q56K/S54C/S55N); test: Epitope mapping ELISA with FAM19A5 mutants M1-M8; type: binding
T4 construct: made in house; host or cells: phage display with helper phage
Description: as §2, §3

[7] = tested on: FAM19A5 epitope fragment F2 mutant peptides; test: ELISA binding to mutant F2 peptide fragments (alanine scanning); design: species or system human
Source text: FIGS. 25A-25J provide the results of the alanine scanning analysis, showing the specific amino acid residues in the epitope F2 fragment that are important for the binding of the various 3-2 antibody variants to FAM19A5 protein. FIGS. 25A, 25B, 25C, and 25D show the results for the following antibodies generated in HEK293F cells: (A) wild-type 3-2 antibody, (B) 1-30 antibody, (C) 1-32 antibody, and (D) 6-10 antibody, respectively. FIGS. 25E, 25F, 25G, 25H, 25I, and 25J show the results for the following antibodies generated in CHO cells: (E) 1-17 antibody, (F) 1-30 antibody, (G) 1-32 antibody, (H) 4-11 antibody, (I) 6-10 antibody, and (J) low-PI antibody, respectively. […] Binding of the antibodies to the different mutant peptides was measured using ELISA.
Overlapping peptide fragments (F1-F6 epitope fragments; SEQ ID NOs: 178-183) of the human FAM19A5 protein were synthesized and conjugated to BSA (SEQ ID NOs: 322-327). Binding of the different anti-FAM19A5 antibodies to the BSA-conjugated peptide fragments F1-F6 was determined by Western blot analysis or ELISA assay. […] The membrane was incubated with the anti-FAM19A5 antibody (e.g., 1-65, […], 1-65-scFv-rabbit Fc-SSS), and the antigen-antibody complexes were detected with the appropriate secondary antibody conjugated with horse-radish peroxidase (anti-rabbit IgG (Fc specific)-HRP, 1:4000 dilution). […]

T2 sequence (Q7Z5A7 with tags, fused parts or gaps isoform Q7Z5A7-2, change not shown): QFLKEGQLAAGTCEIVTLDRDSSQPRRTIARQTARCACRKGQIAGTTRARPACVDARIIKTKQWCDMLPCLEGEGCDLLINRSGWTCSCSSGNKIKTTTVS
T1 sequence (Q7Z5A7 26-125 isoform Q7Z5A7-2 K85L/T86Q/K87R/Q88W/D91Q/L93E/P94L): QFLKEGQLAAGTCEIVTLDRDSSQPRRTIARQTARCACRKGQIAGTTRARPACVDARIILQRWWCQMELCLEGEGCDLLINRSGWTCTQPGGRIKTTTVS
FAM19A5 antigen, sequence (Q7Z5A7 44-132): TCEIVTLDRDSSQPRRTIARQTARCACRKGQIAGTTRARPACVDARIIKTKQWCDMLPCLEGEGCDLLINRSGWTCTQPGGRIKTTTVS
T3 sequence (Q7Z5A7 26-125 isoform Q7Z5A7-2 G100E/D102K/L103T/I105P/N106D/R107N): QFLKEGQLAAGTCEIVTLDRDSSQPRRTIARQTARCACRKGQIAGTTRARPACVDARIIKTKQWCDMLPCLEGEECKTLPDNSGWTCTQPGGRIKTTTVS
T4 sequence (Q7Z5A7 26-125 isoform Q7Z5A7-2 D46C/S47C/S48N/Q49K/P50N): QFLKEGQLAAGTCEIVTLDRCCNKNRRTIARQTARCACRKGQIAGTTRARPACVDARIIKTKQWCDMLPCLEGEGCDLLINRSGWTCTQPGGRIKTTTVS

binding to FAM19A5 mutant M6 (FAM19A5 mutants M1 to M8 [2]): failed to bind | binding to FAM19A5 mutant M8 (FAM19A5 mutants M1 to M8 [3]): strongly binding | binding to F5 mutant peptides #1, 6, and 8 [4]: not to mutant peptides #1, 6, and 8 | binding to F5 mutant peptides #2, 3, 4, 5, and 7 [4]: high binding
B1: P2-C12: anti-FAM19A5 antibody; VH SEQ ID NO: 155, VL SEQ ID NO: 166 (antibody, V domains shown)
VH: QSLEESGGRLVTPGTPLTLTCTVSGFSLSTYAVTWVRQAPGKGLEWIGYINWRGGTSYANWAKGRFTISKTSSTTVDLKMTSPTTEDTATYFCARDASSGAAFGSYGMDPWGPGTLVTVSS
VL: ELDMTQTPSSVSAAVGGTVTIKCQASQSISSYLSWYQQKPGQPPKLLIYEASKLASGVPSRFSGSGYGTEFTLTISDLECADAATYYCQQGYSSTNVWNAFGGGTNVEIK
modifications: P2-C12 VH; P2-C12 VL
binding to the other fragments (F1-F4 and F6) ([1]; ELISA): not significantly | binding to epitope fragment F5 [1]: strongly

binding to FAM19A5 mutant M6 (FAM19A5 mutants M1 to M8 [2]): failed to bind | binding to FAM19A5 mutant M8 (FAM19A5 mutants M1 to M8 [3]): failed to bind | binding to FAM19A5 mutant M7 (FAM19A5 mutants M1 to M8 [5]): reduced binding | cross-competition with the other anti-FAM19A5 antibodies (FAM19A5 antigen): cross-competed with one another
B2: 13B4: anti-FAM19A5 antibody; VH SEQ ID NO: 156, VL SEQ ID NO: 167 (antibody, V domains shown)
VH: QVQLQESGPGLVKPSGTLSLNCAVSGGSISSSNWWSWVRQPPGKGLEWIGEIYHGGTTNYNPSLKGRVTMSVDKTKNQFSLRLSSVTAVDTAVYYCARWQLVGGLDVWGQGTTVTVSS
VL: SYELTQPLSVSVSPGQTASITCSGDKLGNVYASWYQQKPGQSPTLVIYQDNKRPSGIPERFSGSNSGKTATLTISGTQALDEADYYCQAWDSSTAVFGGGTKLTVL
modifications: 13B4 VH; 13B4 VL

binding to FAM19A5 mutant M2 (FAM19A5 mutants M1 to M8 [6]): failed to bind | binding to mutant F2 peptide fragments #1, 2, 6, and 8-13 [7]: bound strongly | binding to mutant F2 peptide fragments #3, 4, 5, and 7 [7]: much reduced binding
B3: 1-28: anti-FAM19A5 antibody; VH SEQ ID NO: 38, VL SEQ ID NO: 42 (antibody, V domains shown)
VH: AVTLDESGGGLQTPGGALSLVCKASGFDFSDYGMGWVRQAPGKGLEWVAAIRSDGSNPSYGSAVKGRATISKDNGRSTVRLQLNNLRAEDTATYYCAKDGNGYCALDAYRSGGYSCGVYPGSIDAWGHGTEVIVSS
VL: ALTQPSSVSANLEGTVEITCSGSGYGYGWYQQKSPGSAPVTVIYQNDKRPSDIPSRFSGSKSGSTGTLTITGVQVEDEAVYYCGSEDSSTLAGIFGAGTTLTVL
modifications: 1-28 VH; 1-28 VL

binding to FAM19A5 mutant M6 (FAM19A5 mutants M1 to M8 [2]): failed to bind | binding to FAM19A5 mutant M8 (FAM19A5 mutants M1 to M8 [3]): failed to bind | binding to FAM19A5 mutant M7 (FAM19A5 mutants M1 to M8 [5]): failed to bind | binding to F5 fragment with D13, L14, I16 or R18 mutated to alanine ([4]; numbering per SEQ ID NO: 275): no longer able to bind | binding to F5 mutant peptides #1, 5, 6, and 7 ([4]; similar affinity): able to bind | cross-competition with the other anti-FAM19A5 antibodies (FAM19A5 antigen): cross-competed with one another
B4: 1-65: anti-FAM19A5 antibody; VH SEQ ID NO: 37, VL SEQ ID NO: 41 (antibody, V domains shown)
VH: AVTLDESGGGLQTPGGALSLVCKASGFTFSSYQMGWVRQAPGKGLEWVGVINKSGSDTSYGSAVKGRATISRDNGQSTVRLQLNNLRAEDTGTYFCAKGSASYITAATIDAWGHGTEVIVSS
VL: ALTQPSSVSANPGETVKITCSGGGSSGYGYGWYQQKSPSSAPLTVIYWNDKRPSDIPSRFSGSKSGSTHTLTITGVQAEDEAVYFCGNDDYSSDSGYVGVFGAGTTLTVL
modifications: 1-65 VH; 1-65 VL
binding to epitope fragment F5 [1]: bound strongly
